Series [1] addresses Ucc1-Skp1(FL) complex (S. cerevisiae, UniProt Q05947 1-369; P52286 1-194). Nature of the series: pull-down.
Series [2] deals with the molecule itself. In words: crystal structure.

From paper PMC10104474 (Science Advances, 2023) come the findings set out here.

Sequence of Ucc1-Skp1(FL) complex (Q05947 whole entry, chain 1 of 2): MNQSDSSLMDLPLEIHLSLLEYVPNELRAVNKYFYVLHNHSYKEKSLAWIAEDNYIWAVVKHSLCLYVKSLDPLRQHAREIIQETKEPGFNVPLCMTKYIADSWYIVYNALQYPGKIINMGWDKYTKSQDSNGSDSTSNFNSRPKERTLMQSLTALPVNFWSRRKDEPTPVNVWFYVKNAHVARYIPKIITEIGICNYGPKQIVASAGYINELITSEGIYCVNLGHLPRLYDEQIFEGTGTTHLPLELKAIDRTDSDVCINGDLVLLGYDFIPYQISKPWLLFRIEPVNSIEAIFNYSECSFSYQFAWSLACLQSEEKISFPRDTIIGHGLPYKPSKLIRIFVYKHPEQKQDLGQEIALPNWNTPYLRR
Sequence of Ucc1-Skp1(FL) complex (P52286 whole entry, chain 2 of 2): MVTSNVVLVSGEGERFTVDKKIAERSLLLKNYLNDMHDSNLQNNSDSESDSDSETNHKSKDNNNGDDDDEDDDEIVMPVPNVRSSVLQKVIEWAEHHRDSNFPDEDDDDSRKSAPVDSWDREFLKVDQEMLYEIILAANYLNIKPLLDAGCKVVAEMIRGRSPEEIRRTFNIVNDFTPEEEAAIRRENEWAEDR

B1: MBP-Cit1(Δ1–37) (enzyme, S. cerevisiae, UniProt P00890 38-479, looked up)
chain: SSASEQTLKERFAEIIPAKAEEIKKFKKEHGKTVIGEVLLEQAYGGMRGIKGLVWEGSVLDPEEGIRFRGRTIPEIQRELPKAEGSTEPLPEALFWLLLTGEIPTDAQVKALSADLAARSEIPEHVIQLLDSLPKDLHPMAQFSIAVTALESESKFAKAYAQGVSKKEYWSYTFEDSLDLLGKLPVIASKIYRNVFKDGKITSTDPNADYGKNLAQLLGYENKDFIDLMRLYLTIHSDHEGGNVSAHTTHLVGSALSSPYLSLAAGLNGLAGPLHGRANQEVLEWLFKLREEVKGDYSKETIEKYLWDTLNAGRVVPGYGHAVLRKTDPRYTAQREFALKHFPDYELFKLVSTIYEVAPGVLTKHGKTKNPWPNVDSHSGVLLQYYGLTEASFYTVLFGVARAIGVLPQLIIDRAVGAPIERPKSFSTEKYKELVKKIESKN
As for B1, the binding result in series [1] was “binds”.

B2: Cit2 (full-length, HisSUMO1-tag cleaved) (enzyme, S. cerevisiae, UniProt P08679 1-460, looked up)
chain: MTVPYLNSNRNVASYLQSNSSQEKTLKERFSEIYPIHAQDVRQFVKEHGKTKISDVLLEQVYGGMRGIPGSVWEGSVLDPEDGIRFRGRTIADIQKDLPKAKGSSQPLPEALFWLLLTGEVPTQAQVENLSADLMSRSELPSHVVQLLDNLPKDLHPMAQFSIAVTALESESKFAKAYAQGISKQDYWSYTFEDSLDLLGKLPVIAAKIYRNVFKDGKMGEVDPNADYAKNLVNLIGSKDEDFVDLMRLYLTIHSDHEGGNVSAHTSHLVGSALSSPYLSLASGLNGLAGPLHGRANQEVLEWLFALKEEVNDDYSKDTIEKYLWDTLNSGRVIPGYGHAVLRKTDPRYMAQRKFAMDHFPDYELFKLVSSIYEVAPGVLTEHGKTKNPWPNVDAHSGVLLQYYGLKESSFYTVLFGVSRAFGILAQLITDRAIGASIERPKSYSTEKYKELVKNIESKL
For B2, in series [2], the “stoichiometry N” value stood at 2.
